In this experiment the target is T1, activin A (UniProt P08476 311-426).
T1 construct: also called ActA
T1 sequence (looked up): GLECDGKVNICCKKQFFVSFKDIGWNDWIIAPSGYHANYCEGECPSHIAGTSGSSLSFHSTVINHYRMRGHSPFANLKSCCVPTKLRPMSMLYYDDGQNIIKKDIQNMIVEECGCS
The experiment is described as follows: Biacore, ligand coupled, receptor flowed (table reproduced from WO2006/012627). In general terms: Surface plasmon resonance follows binding to a sensor surface in real time, without labels.

B1: Soluble ActRIIB-Fc K55A (Fc fusion, UniProt Q13705 19-119, looked up)
chain: SGRGEAETRECIYYNANWELERTNQSGLERCEGEQDARLHCYASWANSSGTIELVKKGCWLDDFNCYDRQECVATEENPQVYFCCCEGNFCNERFTHLPEA
notes: not shown: Fc domain, not specified
On to B1, for which the binding result is reported as “binds”.

Values taken from patent publication US20220233697A1 (ACCELERON PHARMA, published 2022).
